Data as given in patent US9938505B2, “Polypeptide composition and culture method for pluripotent stem cell using same” (FUJIFILM Corporation, priority 2013, dated 2018).

Key:
[1] = Evaluation of adsorbability with respect to culture dish (OPA/NAC fluorescence); assay type: physicochemical; conditions: FIG. 1
Protocol: Each of the polypeptides obtained as above was diluted with a predetermined buffer such that they could be added to wells at a predetermined final concentration of 0 pmol/cm^2 to 200 pmol/cm^2. Thereafter, each of the polypeptides was added in an amount of 64 μL to a plasma-treated 96-well plate made of polystyrene (Tissue Culture-Treated, Falcon). Each of the polypeptides was allowed to adsorbed onto the plate by being incubated for 2 hours at 37° C., and then the wells were washed twice with PBS, thereby obtaining surfaces coated with each of the polypeptides of RCP-1 to RCP-16.
Among the surfaces coated with each of the polypeptides obtained as above, the surfaces coated with RCP-1 and RCP-11 to RCP-16 were applied with 64 μL of a borate buffer and 64 μL of 1 N NaOH, followed by incubation for 24 hours at 80° C. and 100% humidity. […] After incubation for 30 minutes at 40° C., the fluorescence intensity thereof was measured by using an ENVISION MULTILABEL COUNTER (trade name, PerkinElmer Inc.) (excitation 355 nm/fluorescence 486 nm). […]

[2] = target: T1, Plasminogen Activator Inhibitor-1 (PAI-1) (Homo sapiens, UniProt P05121); experiment: Evaluation of PAI-1 binding properties (plate assay, Scatchard plot); conditions: for Binding constant: KA from slope of Scatchard plot, PAI-1 170 nM to 2.6 nM, RCP-5 immobilized from 100 μg/ml
T1 construct: purchased R & D Systems Inc 1786-PI
T1 sequence (P05121 24-402): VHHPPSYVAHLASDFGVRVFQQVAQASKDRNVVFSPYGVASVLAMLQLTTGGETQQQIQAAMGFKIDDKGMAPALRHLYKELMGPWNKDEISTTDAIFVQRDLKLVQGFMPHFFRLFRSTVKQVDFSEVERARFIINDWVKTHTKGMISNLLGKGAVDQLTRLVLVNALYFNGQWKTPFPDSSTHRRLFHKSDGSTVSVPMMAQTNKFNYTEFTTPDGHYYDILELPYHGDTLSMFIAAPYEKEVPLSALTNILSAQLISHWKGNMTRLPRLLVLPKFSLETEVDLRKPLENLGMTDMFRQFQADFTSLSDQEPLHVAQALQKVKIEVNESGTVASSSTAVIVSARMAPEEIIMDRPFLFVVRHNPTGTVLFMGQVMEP
Protocol: By using a Plasminogen Activator Inhibitor-1 (PAI-1) known to bind with a polypeptide having a structure in which Cys 25 and Cys 31 are cross-linked to each other, detection of the cross-linking structure of Cys 25 and Cys 31 was tried.
The polypeptide compositions II-1 and II-2 (100 μg/ml) were added to a flat-bottomed black 96-well plate (half-Area) made of polystyrene at 64 μL/well. The entirety of the plate was covered with a sealing film (Funakoshi Co., Ltd.) and left to stand at 4° C. such that RCP-5 in each of the polypeptide compositions was immobilized. After 12 hours, the liquid in the wells was discarded, and TBS (NIPPON GENE CO., LTD.) containing 5% Bovine Serum Albumin (Sigma-Aldrich Co, LLC.) was added thereto at 150 μL/well. The plate was left to stand for 1 hour at 37° C., and then the liquid in the wells was discarded. Furthermore, BLOCKER CASEIN (trade name, Thermo Scientific Inc.) was added thereto at 150 μL/well, and the plate was left to stand at 37° C. as above so as to performing blocking. After 1 hour, TBS (TBST) containing 0.05% Tween 20 was added thereto at 150 μL/well, and the liquid was continuously discarded from the wells. By performing the above operation 4 times in total, the inside of the wells was washed.
Then, a solution of recombinant PAI-1 (catalog number 1786-PI, R & D Systems Inc) serially diluted with TBS from 170 nM to 2.6 nM at the same factor was added to the respective well at 50 μL/well, and the plate was left to stand at 37° C. After 1 hour, the PAI-1 solution was discarded from the wells, and the wells were washed with TBST 4 times in total by the same method as described above, thereby removing unbound PAI-1. […]
Furthermore, an undiluted solution of HRP-labeled anti-goat IgG antibodies (catalog number 81-1620, Life Technologies) was diluted 7,500-fold with TBS and added to the wells at 100 μL/well. […] The excitation wavelength and the fluorescence wavelength were set to be 330 nm and 410 nm respectively, and the binding of RCP-5 to PAI-1 was measured as a relative fluorescence unit by using ENVISION (trade name, PerkinElmer Inc). […]

[3] = system: iPS cells; experiment: Cell growth property evaluation 2 (ALP activity, 72 hours); assay type: cell-based, human; conditions: for Number of cells (%/LN-511): same method as Cell growth property evaluation 2, Table 13
Protocol: Each of the polypeptide liquids was added to the respective wells of a plasma-treated 96-well plate (BD Falcon) made of polystyrene having a plasma-treated cell culture surface, and the plate was held as it is for 2 hours at 37° C. such that the polypeptide was adsorbed thereonto, thereby obtaining a peptide-treated 96-well plate having a polypeptide-coated surface. Into the respective wells of the obtained peptide-treated 96-well plate, iPS cells suspended in a medium obtained by mixing TeSR2 (Stemcell Technologies Inc.) with NUTRISTEM (registered trademark, Bio Industries Inc.) at 1:1 (volume ratio) were seeded at a cell density of 10,000 cells/well. After 72 hours of culture, nonadhesive cells were washed off with PBS, and only adhesive cells were immobilized using 4% by mass paraformaldehyde (Wako Pure Chemical Industries, Ltd.). By using an ATTOPHOS (registered trademark) AP FLUORESCENT SUBSTRATE SYSTEM (Promega Corporation), the ALP activity was calculated, and from the calibration curve, the number of undifferentiated iPS cells having the ALP activity was calculated. In Table 11, the cell growth rate is expressed as a ratio calculated by regarding the number of cells after 72 hours of culture using recombinant laminin as being 100%. n=3.
By the same method as described in <Cell growth property evaluation 2> of Example 3, the cell growth properties of the polypeptide compositions II-1 and II-2 was evaluated. […] That is, it was understood that the polypeptide in which Cys 25, Cys 31, and the intramolecular cross-linking structure bind with each other is excellent in the cell growth activity.

| Molecule | amount adsorbed onto the plate, as fraction of the amount of the polypeptide including SEQ ID NO: 3 [1] | Binding constant [2] | binding constant of PAI-1 (in words) ([2]; comparison of compositions) | cell growth properties (in words) ([3]; comparison of compositions) | Number of cells (%/LN-511) [3] |
| --- | --- | --- | --- | --- | --- |
| RCP-14: recombinant polypeptide SEQ ID NO: 27; human vitronectin positions 1-55 (GPLGDQESCKGRCTEGFNVDKKCQCDELCSYYQSCCTDYTAECKPQVTRGDVFTMPEDE; Synthetic peptide RCP-14) | about ¼ | – | – | – | – |
| RCP-13: recombinant polypeptide SEQ ID NO: 26; human vitronectin positions 1-55, 56-130 (protein, Synthetic peptide RCP-13) GPLGDQESCKGRCTEGFNVDKKCQCDELCSYYQSCCTDYTAECKPQVTRGDVFTMPEDEYTVYDDGEEKNNATVHEQVGGPSLTSDLQAQSKGNPEQTPVLKPEEEAPAPEVGASKPEGIDSRPETLHPGRPQP | about ¼ | – | – | – | – |
| II-1: polypeptide composition containing RCP-5 after reduction treatment with Tris(2-carboxyethyl)phosphine Hydrochloride and dialysis (protein) MDQESCKGRCTEGFNVDKKCQCDELCSYYQSCCTDYTAECKPQVTRGDVFTMPEDEFWGRTSAGTRQPQFISRDWHGVPGQVDAAMAGRIYISGMAPRPSLAKKQRFRHRNRKGYRSQRGHSRGRNQN | – | 0.22 | greater | better than that of the polypeptide composition II-2 | 107 ± 47 %/LN-511 |
| II-2: comparative polypeptide composition containing RCP-5, frozen at −80° C. without being treated, then dialyzed (protein) MDQESCKGRCTEGFNVDKKCQCDELCSYYQSCCTDYTAECKPQVTRGDVFTMPEDEFWGRTSAGTRQPQFISRDWHGVPGQVDAAMAGRIYISGMAPRPSLAKKQRFRHRNRKGYRSQRGHSRGRNQN | – | 0.06 | – | – | 79 ± 5 %/LN-511 |
